± gives the standard deviation.
Assay: protein stability index of a GFP-peptide fusion (GPS, HEK-293T) (PSI 1-6); higher = more stable
[1] = treatment: DMSO, c terminus: a fixed tail appended
[2] = treatment: MLN4924 1 uM, 8 h, c terminus: a fixed tail appended
[3] = treatment: DMSO, c terminus: native
[4] = treatment: MLN4924 1 uM, 8 h, c terminus: native
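Note: 24-mer peptide tiles fused after GFP, lentivirally expressed, FACS-sorted into six equal bins by GFP/DsRed ratio, decoded by Illumina sequencing, PSI is the read-weighted mean bin number.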

Row | Sequence | protein stability index [1] | protein stability index [2] | protein stability index [3] | protein stability index [4]
1 | EREVRAKNGRVDSEDRRSRHCPYL [USP39] | 4.39 ± 0.24 | 4.5 ± 0.32 | – | –
2 | VEATVKPELTAALRDIRAQYESIA [PRPH] | 3.48 ± 0.16 | 3.4 ± 0.22 | – | –
3 | AVAAATAAVEGSGGSGGGSHHHHQ [KCNA4] | 5.04 ± 0.33 | 5.07 ± 0.35 | – | –
4 | DSTTTRQRRSRQNPQSPPQDSSVT [HDAC6] | 5.13 ± 0.24 | 5.53 ± 0.098 | – | –
5 | WEYSSSIQNSDNDLPVVQGSSSFS [TRIM29] | 4.61 ± 0.25 | 4.42 ± 0.36 | – | –
6 | NRLLQEENRTLQVLRAEHRGFQEE [CBY2] | 4.43 ± 0.21 | 4.46 ± 0.12 | – | –
7 | DCRVDLGSEVYRMLREPAEPVAAE [PDLIM4] | 4.67 ± 0.05 | 4.76 ± 0.092 | – | –
8 | GEQEHSQQKEEEEEMAVVPQGLFR [CHGA] | 5.45 ± 0.43 | 5.55 ± 0.28 | – | –
9 | DQPMGGWEMIRKIGDTSVSYKYTS [LMNB1] | 3.1 ± 0.31 | 3.2 ± 0.28 | – | –
10 | QTWKLFSSHMNIDITDDCICDLAR [PPEF2] | 2.25 ± 0.35 | 2.06 ± 0.32 | – | –
11 | KVENLTLKNHFQSVLEQLELQEKQ [TAF7L] | 3.54 ± 0.13 | 3.96 ± 0.094 | – | –
12 | PRAERKCPRIAPADSGRYRASPTR [ELOA2] | 4.47 ± 0.14 | 4.47 ± 0.26 | – | –
13 | SRRQEKSAGDADPENGEIKPASKP [ELOA2] | 5.53 ± 0.19 | 5.69 ± 0.1 | – | –
14 | APPPRDYTYRDYGHSSSRDDYPSR [RBMX] | 4.43 ± 0.21 | 4.32 ± 0.078 | – | –
15 | VYSDLCEAAEAVRPEERKTCRNPA [ADAMTSL2] | 4.83 ± 0.21 | 4.5 ± 0.49 | – | –
16 | GGMMPPGPGIPPLMPGMPPGMPPP [ZNF207] | 3.89 ± 0.43 | 4.09 ± 0.15 | – | –
17 | VKEKGSTLDLSDLEAEKLVMFQRR [SCD] | 4.06 ± 0.31 | 3.97 ± 0.31 | – | –
18 | AGPYLLNGSYLELSSDRVANSSSE [ADAMTSL2] | 4.09 ± 0.27 | 4.07 ± 0.17 | – | –
19 | AGIALYSHEDVCVFKCSVSRETEC [CARM1] | 3 ± 0.3 | 2.7 ± 0.4 | – | –
20 | PKTQACSGSESPSDSGKDLPEPSK [MYCL] | 5.36 ± 0.23 | 5.63 ± 0.25 | – | –
21 | DVDLLDSKVIEILDSQTEIYQYVQ [DLC1] | 3.41 ± 0.31 | 3.62 ± 0.38 | – | –
22 | MRLSWSVAQGPFDSFVVQYEDTNG [TNXB] | 2.26 ± 0.17 | 2.21 ± 0.12 | – | –

Row | Sequence | protein stability index [1] | protein stability index [2] | protein stability index [3] | protein stability index [4]
23 | RMVPALPPKRMLGADREFIEARRR [SNX8] | 3.96 ± 0.29 | 4.17 ± 0.18 | – | –
24 | ITPWTPSPSEKNSSFTWSVPSSGY [SMTNL2] | 2.72 ± 0.3 | 2.75 ± 0.34 | – | –
25 | SLSFEDELVYADDYIMDEDQSKLA [ESRRG] | 5.43 ± 0.31 | 5.41 ± 0.27 | – | –
26 | EYQLNDSAAYYLNDLDRIAQPNYI [GNAI1] | 2.61 ± 0.15 | 2.79 ± 0.49 | – | –
27 | KFQLNKYTGEIKISENLDYEETGF [PCDHGA10] | 2.6 ± 0.099 | 3.63 ± 0.36 | – | –
28 | ELYGLALRFFKEKDGKAFHPTYEE [ACBD3] | 2.13 ± 0.26 | 2.19 ± 0.35 | – | –
29 | RRSQQQQVPVVDFQAELRQAFLAE [SNURF] | 3.84 ± 0.37 | 3.86 ± 0.28 | – | –
30 | MPKNSKVTQREHSSEHVTESVADL [SLC6A17] | 5.4 ± 0.14 | 5.45 ± 0.085 | – | –
31 | LRQLTAELAEHRCHPVERGIKSKE [PSD2] | 3.99 ± 0.26 | 4.2 ± 0.043 | – | –
32 | LTCEFNNNHESLDEELHLLIISCR [FBXO39] | 2.27 ± 0.41 | 2.41 ± 0.39 | – | –
33 | VFKCVKRLDGCIYAIKRSKKPLAG [WEE1] | 2.23 ± 0.27 | 2.28 ± 0.15 | – | –
34 | HDGHLYLGSFRSPFLCRLSLQAV [APMAP] | – | – | 2.82 ± 0.33 | 3.31 ± 0.55
35 | RGYIKPHVDSIKFCGATIAGLSLL [ALKBH7] | 2.52 ± 0.41 | 2.39 ± 0.63 | – | –
36 | FQAKKIPIVSSLADPLDTPPDSKE [PDZK1] | 4.16 ± 0.3 | 4.39 ± 0.63 | – | –
37 | PHQTSKMENLPGLASGPGKYMPHL | 3.44 ± 0.23 | 3.65 ± 0.076 | – | –
38 | KYWCVTATRVAPERLFGSAANVVS [ZBED1] | 2.25 ± 0.34 | 2.38 ± 0.28 | – | –
39 | YNIPHGPVVGSTRRLYEKKIFEYE [EMD] | 3.18 ± 0.29 | 3.23 ± 0.14 | – | –
40 | VTGPDNGVRESETEQGFGEDLEDL [NFE2L1] | 5.79 ± 0.27 | 5.62 ± 0.35 | – | –
41 | RMRLFGQRCQKCSWSQYEMPEFSS [RTP4] | 2.42 ± 0.52 | 2.2 ± 0.23 | – | –
42 | RRRIEEERLRLEQQKQQIMAALNS [ACBD3] | 4.05 ± 0.14 | 4.58 ± 0.2 | – | –
43 | LLSLVTFTFLSAKCLQGNADGDGG [PCDHGC5] | 3.46 ± 0.031 | 2.93 ± 0.44 | – | –
44 | IGDTSVSYKYTSRYVLKAGQTVTI [LMNB1] | 2.49 ± 0.73 | 2.29 ± 0.5 | – | –

Row | Sequence | protein stability index [1] | protein stability index [2] | protein stability index [3] | protein stability index [4]
45 | GKLKCDICGIICIGPNVLMVHKRS [IKZF1] | 2.91 ± 1.6 | 2.26 ± 0.75 | – | –
46 | VKLMMSTLPKSLSLPTTAPSNSSS [MYBL2] | 3.24 ± 0.18 | 3.33 ± 0.24 | – | –
47 | SELQKELKKVKTAHSNDGDCKTQ [DPCD] | – | – | 4.94 ± 0.27 | 5.28 ± 0.14
48 | KQGQCTKGDKCKFSHDLTLERKCE [ZC3H15] | 4.75 ± 0.15 | 4.6 ± 0.1 | – | –
49 | GAVAPPVSGDLTKEDIDLIDILWR [NFE2L1] | 3.16 ± 0.17 | 3.67 ± 0.53 | – | –
50 | TEELTVIKSSLKDEYQYSFWDLFR [SLC2A12] | 2.38 ± 0.25 | 2.29 ± 0.35 | – | –
51 | AERLTATGILLHPWLRQDPMPLAP [TRIB3] | 2.78 ± 0.22 | 2.91 ± 0.18 | – | –
52 | TIQQEKLLAEKEEKLQKEQKELQD [SASS6] | 5.52 ± 0.31 | 5.54 ± 0.23 | – | –
53 | RFNQVLKNLLHAEFLRVQEERILH [VPS39] | 2.47 ± 0.81 | 2.46 ± 0.38 | – | –
54 | NLARQWNNCAFLESSAKSKINVNE [RAP1B] | 2.93 ± 0.33 | 2.75 ± 0.19 | – | –
55 | NLHSLALDFCDFTAEMARVLTDSN [FBXO33] | 1.84 ± 0.25 | 2.49 ± 0.61 | – | –
56 | QFQEALEELAKKRFKDKSSEEAVR [TPPP] | 3.49 ± 0.38 | 3.64 ± 0.39 | – | –
57 | RQPVSFHRVKLTNSTLDPHGHLIL [TBX6] | 2.27 ± 0.16 | 2.27 ± 0.34 | – | –
58 | AEMFRRKPLFCGNSEADQLGKIFD [CDK4] | 2.98 ± 0.17 | 3.06 ± 0.2 | – | –
59 | QTLKAMVQAWPFTCLPLGVLMKGQ [PRAME] | 2.65 ± 0.85 | 3.03 ± 0.38 | – | –
60 | FDSPSLCSSSTRSVLKRPERSQEE [CDC25A] | 5.04 ± 0.31 | 5.12 ± 0.16 | – | –
61 | DWRKNIEEKSGMEGRKKMFESES [TNNI2] | – | – | 3.04 ± 0.93 | 3.86 ± 0.92
62 | NRKVSQRRVDFCKDPSAIGKKQVP [CASP6] | 4.04 ± 0.16 | 4.26 ± 0.22 | – | –
63 | QLTNTSGTVIGVTSCIVIILIIIS [NETO1] | 2.43 ± 0.27 | 2.43 ± 0.28 | – | –
64 | EHYRVQTQQTGTVRFDGYVIDGAT [FEM1B] | 3.64 ± 0.3 | 3.88 ± 0.26 | – | –
65 | RFPLQEENSVTHHEVKCQGKPLAG [KMT5A] | 4.69 ± 0.27 | 4.55 ± 0.38 | – | –

Reference: the supplement of paper PMC10567573
